# According to doi:10.1101/2020.09.22.308338 (bioRxiv, 2020):
# B1: nanobody NM1230 (VHH)
# VHH: QVQLVESGGGLVRPGGSLRLSCVGSGFTFSGYAMNWYRQAPGKALELVAGISNAGDLTHYEEPMKGRVAISRANDKNTVYLQMDDLKPEDTAVYRCHAPGVRVGTGERKDVWGQGAQVTVSS
# Columns and labels:
# [1] = target: T1, SARS-CoV-2 spike receptor-binding domain (RBD) (SARS-CoV-2, UniProt P0DTC2, biotin (biotinylated RBD in the BLI experiments only)); test: BLI
# [2] = target: T1, SARS-CoV-2 spike receptor-binding …; test: bead-based multiplex ACE2 competition assay
binder,measurement,setting,value
B1,Kd,[1],8.23 nM
same,IC50,[2],2.12 nM
